Patent US20210102192A1 (TWIST BIOSCIENCE, published 2021)
Where two headings read alike, the source gives them in different places. Each block holds one binder with its values, some of them ahead of it.

What was measured:
[1] = target: T1, Prostaglandin D2 receptor 2 (CRTH2R) (human, UniProt Q9Y5Y4 1-395); assay: cell-based or functional assay
T1 sequence: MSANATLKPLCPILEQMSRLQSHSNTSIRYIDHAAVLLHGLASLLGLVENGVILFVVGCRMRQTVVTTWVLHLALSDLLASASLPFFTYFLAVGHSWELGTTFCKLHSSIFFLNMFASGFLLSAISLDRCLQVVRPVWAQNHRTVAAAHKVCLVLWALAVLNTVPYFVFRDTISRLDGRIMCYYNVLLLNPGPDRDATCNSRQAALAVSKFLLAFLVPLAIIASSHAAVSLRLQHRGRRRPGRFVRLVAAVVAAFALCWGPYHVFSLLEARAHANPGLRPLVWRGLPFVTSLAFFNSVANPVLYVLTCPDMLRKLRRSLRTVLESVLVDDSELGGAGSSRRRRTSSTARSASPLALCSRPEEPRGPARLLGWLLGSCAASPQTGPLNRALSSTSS

[2] = target: T2, Prostaglandin D2 receptor 2 (CRTH2R) (UniProt Q9Y5Y4 1-395); assay: FACS binding; CHO CRTH2R-positive cells
T2 chain: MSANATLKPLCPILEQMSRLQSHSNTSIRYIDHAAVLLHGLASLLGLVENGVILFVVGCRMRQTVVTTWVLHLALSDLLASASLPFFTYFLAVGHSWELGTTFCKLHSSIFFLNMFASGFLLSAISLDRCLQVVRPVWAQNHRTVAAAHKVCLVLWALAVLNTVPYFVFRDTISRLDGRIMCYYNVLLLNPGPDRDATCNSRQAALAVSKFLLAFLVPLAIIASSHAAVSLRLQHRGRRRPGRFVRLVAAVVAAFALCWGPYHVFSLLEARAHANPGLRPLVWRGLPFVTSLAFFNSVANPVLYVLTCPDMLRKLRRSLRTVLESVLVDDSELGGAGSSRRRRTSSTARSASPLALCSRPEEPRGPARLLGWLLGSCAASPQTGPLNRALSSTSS

[3] = target: T2, Prostaglandin D2 receptor 2 (CRTH2R); assay: FACS binding; CHO CRTH2R-positive cells
[4] = target: T2, Prostaglandin D2 receptor 2 (CRTH2R); assay: FACS binding; CHO CRTH2R-positive cells
[5] = target: T2, Prostaglandin D2 receptor 2 (CRTH2R); assay: FACS binding; CHO CRTH2R-positive cells

- antagonist activity in PGD2-induced cAMP assay at 33 nM IgG [1]: > 20%
B1: CRTH2-60 (antibody, V domains shown)
VH: QVQLVQSGAEVKKPGSSVKVSCKASGGTFKNYAINWVRQAPGQGLEWMGAIIPKFGAANYAQKFQGRVTITADESTSTAYMELSSLRSEDTAVYYCARANQHFSAVRGLAFGYGYRIGGYHYYGMDVWGQGTLVTVSS
VL: QSVLTQPPSVSAAPGQKVTISCSGSTSNIGINYVSWYQQLPGTAPKLLIYENRKRPSGIPDRFSGSKSGTSATLGITGLQTGDEADYYCATWDASLKNLVFGGGTKLTVL

- IC50 fold difference of the PGD2 dose response curve (cAMP assay, 100 nM IgG) [1]: > 2 fold
- EC50 [3]: 12.4 nM
B7: CRTH2-32 (antibody, V domains shown)
VH: QVQLVESGGGVVQPGRSLRLSCAASGFTFSKHGMHWVRQAPGKGLEWVAFISYEGSEKYYADSVKGRFTISRDNSKNTLYLQMNSLRAEDTAVYYCARDMYYDFHYSTVGATYYYYLGSETEVVPADDAFDIWGQGTLVTVSS
VL: QSALTQPASVSGSPGQSITISCTGTSSGVGGYDYVSWYQQHPGKAPKLMIYDDNNRPSGVSNRFSGSKSGNTASLTISGLQAEDEADYYCSSYTGSSTLYVFGGGTKLTVL

- IC50 fold difference of the PGD2 dose response curve (cAMP assay, 100 nM IgG) [1]: > 2 fold
- antagonist activity in PGD2-induced cAMP assay at 33 nM IgG [1]: > 20%
B8: CRTH2-42 (antibody)
VH: QVQLVESGGGVVQPGRSLRLSCAASGFAFSSYAMHWVRQAPGKGLEWVAVISYEGSNEYYADSVKGRFTISRDNSKNTLYLQMNSLRAEDTAVYYCARDLRELECEEWTVLQYGKFHMRWAESGEGSLSRGPCVDPRGVAGSFDVWGQGTLVTVSS
VL: QSALTQPASVSGSPGQSITISCTGTSSDVGGYRYVSWYQQHPGKAPKLMIYNVNYRPSGVSNRFSGSKSGNTASLTISGLQAEDEADYYCSSYRSSSTLGVFGGGTKLTVL

- antagonist activity in PGD2-induced cAMP assay at 33 nM IgG [1]: > 20%
- EC50 [2]: 16.7 nM
B9: CRTH2-19 (antibody, V domains shown)
VH: QVQLVQSGAEVKKPGSSVKVSCKASGGTFSSHAINWVRQAPGQGLEWMGRIIPIVGTTTYAQKFQGRVTITADESTSTAYMELSSLRSEDTAVYYCARDMYYDFDYFGLTLTGDRNDDEVVPADDAFDIWGQGTLVTVSS
VL: QSALTQPASVSGSPGQSITISCTGTSSDVGGYDYVTWYQQHPGKAPKLMIYDVDTRPSGVSNRFSGSKSGNTASLTISGLQAEDEADYYCSSYTTSTSYVFGGGTKLTVL

- EC50 [3]: 12.6 nM
B10: CRTH2 35 (antibody, V domains shown)
VH: QVQLVQSGAEVKKPGSSVKVSCKASGGTFRSYAISWVRQAPGQGLEWMGGIIPISGTTNYAQKFQGRVTITADESTSTAYMELSSLRSEDTAVYYCARANQHFTRIFGNYQIYFGHFGYHYYGMDVWGQGTLVTVSS
VL: QSALTQPASVSGSPGQSITISCTGTSSDIGGYEFVSWYQQHPGKAPKLMIYGVSRRPSGVSNRFSGSKSGNTASLTISGLQAEDEADYYCGSYTSSSTPYVFGGGTKLTVL

- EC50 [4]: 158 nM
B11: CRTH2 57 (antibody, V domains shown)
VH: QVQLVQSGAEVKKPGSSVKVSCKASGGTFSSYAMSWVRQAPGQGLEWMGGIIPLFGTTDYAQKFQGRVTITADESTSTAYMELSSLRSEDTAVYYCARANQHFVKIQGAPVSTPVPGFGTTGYHYYGMDVWGQGTLVTVSS
VL: QSVLTQPPSVSAAPGQKVTISCSGSSSNIEDNYVSWYQQLPGTAPKLLIYDNFKRPSGIPDRFSGSKSGTSATLGITGLQTGDEADYYCGTWDTSLSAALFGGGTKLTVL

- antagonist activity in PGD2-induced cAMP assay at 33 nM IgG [1]: > 20%
B16: CRTH2-24 (antibody, V domains shown)
VH: QVQLVQSGAEVKKPGSSVKVSCKASGGSFSNYGISWVRQAPGQGLEWMGGIIPLIGTANYAQKFQGRVTITADESTSTAYMELSSLRSEDTAVYYCARDMYYDFTLGPQSIGPLGEVVPADDAFDIWGQGTLVTVSS
VL: QSVLTQPPSVSAAPGQKVTISCSGSSSNIGNNFVSWYQQLPGTAPKLLIYDNIQRPSGIPDRFSGSKSGTSATLGITGLQTGDEADYYCGTWDTSLSAVVFGGGTKLTVLR

More lines, now with the values behind:

B2: CRTH2-27 (antibody, V domains shown)
VH: QVQLVESGGGVVQPGRSLRLSCAASGFTFDNYGMHWVRQAPGKGLEWVAVISYEGSNKKYADSVKGRFTISRDNSKNTLYLQMNSLRAEDTAVYYCARDMYYDFGSIYGEDVVGELPEVVPADDAFDIWGQGTLVTVSS
VL: QSALTQPASVSGSPGQSITISCTGTSNDVGAYNFVSWYQQHPGKAPKLMIYDISNRPSGVSNRFSGSKSGNTASLTISGLQAEDEADYYCSSYTRSNTRVFGGGTKLTVL
- IC50 fold difference of the PGD2 dose response curve (cAMP assay, 100 nM IgG) [1]: > 2 fold

B3: CRTH2-70 (antibody, V domains shown)
VH: QVQLVQSGAEVKKPGSSVKVSCKASGGTFSNHAIIWVRQAPGQGLEWMGGIIPIFGTPSYAQKFQGRVTITADESTSTAYMELSSLRSEDTAVYYCARDMYYDFDVISAGVVGAGNPEVVPADDAFDIWGQGTLVTVSS
VL: QSVLTQPPSVSAAPGQKVTISCSGSTSNIGNNFVSWYQQLPGTAPKLLIYDNEKRPSGIPDRFSGSKSGTSATLGITGLQTGDEADYYCGTWDERQTDESYVFGGGTKLTVL
- antagonist activity in PGD2-induced cAMP assay at 33 nM IgG [1]: > 20%

B4: CRTH2-74 (antibody)
VH: QVQLVESGGGVVQPGRSLRLSCAASGFSFSEYGIHWVRQAPGKGLEWVAVISYEGSNEYYADSVKGRFTISRDNSKNTLYLQMNSLRAEDTAVYYCARANQHFGPVAGGATPSEEPGSQLTRAELGWDAPPGQESLADELLQLGTEHGYHYYGMDVWGQGTLVTVSS
VL: QSVLTQPPSVSAAPGQKVTISCSGSTSNIGKNYVSWYQQLPGTAPKLLIYDDDERPSGIPDRFSGSMSGTSATLGITGLQTGDEADYYCEAWDADLSGAVFGGGTKLTVL
- antagonist activity in PGD2-induced cAMP assay at 33 nM IgG [1]: > 20%
- EC50 [2]: 8.61 nM

B5: CRTH2-9 (antibody, V domains shown)
VH: QVQLVQSGAEVKKPGSSVKVSCKASGGTFSSYAISWVRQAPGQGLEWMGGIIPIFGTANYAQKFQGRVTITADESTSTAYMELSSLRSEDTAVYYCARDMYYDFWLGDQSTGSLIGAEVVPADDAFDIWGQGTLVTVSS
VL: QSVLTQPPSVSAAPGQKVTISCSGSTSNIGNNYVSWYQQLPGTAPKLLIYENDERPSGIPDRFSGSKSGTSATLGITGLQTGDEADYYCATWDTRLSAVVFGGGTKLTVL
- IC50 fold difference of the PGD2 dose response curve (cAMP assay, 100 nM IgG) [1]: > 2 fold
- antagonist activity in PGD2-induced cAMP assay at 33 nM IgG [1]: > 20%

B6: CRTH2-28 (antibody, V domains shown)
VH: QVQLVQSGAEVKKPGSSVNVSCKASGGTFSDYAFSWVRQAPGQGLEWMGAIIPFFGTVNYAQKFQGRVTITADESTSTAYMELSSLRSEDTAVYYCARDMYYDFATGTGGPEDDLYPQGELNDGYRIEVVPADDAFDIWGQGTLVTVSS
VL: QSVLTQPPSVSAAPGQKVTISCSGSISNIGKNYVSWYQQLPGTAPKLLIYDDHKRPSGIPDRFSGSKSGTSATLGITGLQTGDEADYYCATWDRGLSAAVFGGGTKLTVL
- antagonist activity in PGD2-induced cAMP assay at 33 nM IgG [1]: > 20%

B12: CRTH2-15 (antibody, V domains shown)
VH: QVQLVQSGAEVKKPGSSVKVSCKASGGTFSTYAIDWVRQAPGQGLEWMGGIIPLFGSPNYAQKFQGRVTITADESTSTAYMELSSLRSEDTAVYYCARANQHFFLYEGTSSSWLHVGHARYGYHYYGMDVWGQGTLVTVSS
VL: QSVLTQPPSVSAAPGQKVTISCSGSGSNIGSNYVSWYQQLPGTAPKLLIYDNIRRPSGIPDRFSGSKSGTSATLGITGLQTGDEADYYCAAWDTRLSAGVFGGGTKLTVL
- antagonist activity in PGD2-induced cAMP assay at 33 nM IgG [1]: > 20%
- EC50 [5]: 73.8 nM

B13: CRTH2-8 (antibody, V domains shown)
VH: QVQLVQSGAEVKKPGSSVKVSCKASGGTFTDYAISWVRQAPGQGLEWMGGIIPFFGSPNYAQKFQGRVTITADESTSTAYMELSSLRSEDTAVYYCARDMYYDFAAGLEGTITEVFDEEGHQGGTEVVPADDAFDIWGQGTLVTVSS
VL: QSVLTQPPSVSAAPGQKVTISCSGSSSNIGKNYVSWYQQLPGTAPKLLIYDNNQRPSGIPDRFSGSKSGTSATLGITGLQTGDEADYYCGTWDTSLTSVVFGGGTKLTVL
- antagonist activity in PGD2-induced cAMP assay at 33 nM IgG [1]: > 20%

B14: CRTH2-45 (antibody)
VH: QVQLVESGGGVVQPGRSLRLSCAASGFTFSHYAMHWVRQAPGKGLEWVADISHEGSNKYYADSVKGRFTISRDNSKNTLYLQMNSLRAEDTAVYYCARDGRGSLPRPKGGPTSGGGFSTNIGYGFVVQSYDSSEDSGGAFDIWGQGTLVTVSS
VL: QSVLTQPPSVSAAPGQKVTISCSGTSSNIENNYVSWYQQLPGTAPKLLIYDNVKRPSGIPDRFSGSKSGTSATLGITGLQTGDEADYYCGTWDNTVSAPWVFGGGTKLTVL
- antagonist activity in PGD2-induced cAMP assay at 33 nM IgG [1]: > 20%
- EC50 [3]: 23.2 nM

B15: CRTH2 66 (antibody)
chain 1: QVQLVESGGGVVQPGRSLRLSCAASGFDFSGYGMHWVRQAPGKGLEWVAVISYEGSNKFYADSVKGRFTISRDNSKNTLYLQMNSLRAEDTAVYYCARDLRELECEEWTIEVHGQEFAVHQDRGGVFSRGPCVDPRGVAGSFDVWGQGTLVTVSS
chain 2: EIVMTQSPATLSVSPGERATLSCRASQGVGSNLAWYQQKPGQAPRLLIYRTSIRATGIPARFSGSGSGTEFTLTISSLQSEDFAVYYCQQYYSWPPLTFGGGTKVEIK
- EC50 [4]: 3.95 nM
